Measured values published in IntAct's records for PubMed 10664449.

B1: Guanine nucleotide-binding protein subunit beta (Saccharomyces cerevisiae), P18851 (parent)
chain: MAAHQMDSITYSNNVTQQYIQPQSLQDISAVEDEIQNKIEAARQESKQLHAQINKAKHKIQDASLFQMANKVTSLTKNKINLKPNIVLKGHNNKISDFRWSRDSKRILSASQDGFMLIWDSASGLKQNAIPLDSQWVLSCAISPSSTLVASAGLNNNCTIYRVSKENRVAQNVASIFKGHTCYISDIEFTDNAHILTASGDMTCALWDIPKAKRVREYSDHLGDVLALAIPEEPNSENSSNTFASCGSDGYTYIWDSRSPSAVQSFYVNDSDINALRFFKDGMSIVAGSDNGAINMYDLRSDCSIATFSLFRGYEERTPTPTYMAANMEYNTAQSPQTLKSTSSSYLDNQGVVSLDFSASGRLMYSCYTDIGCVVWDVLKGEIVGKLEGHGGRVTGVRSSPDGLAVCTGSWDSTMKIWSPGYQ
partner: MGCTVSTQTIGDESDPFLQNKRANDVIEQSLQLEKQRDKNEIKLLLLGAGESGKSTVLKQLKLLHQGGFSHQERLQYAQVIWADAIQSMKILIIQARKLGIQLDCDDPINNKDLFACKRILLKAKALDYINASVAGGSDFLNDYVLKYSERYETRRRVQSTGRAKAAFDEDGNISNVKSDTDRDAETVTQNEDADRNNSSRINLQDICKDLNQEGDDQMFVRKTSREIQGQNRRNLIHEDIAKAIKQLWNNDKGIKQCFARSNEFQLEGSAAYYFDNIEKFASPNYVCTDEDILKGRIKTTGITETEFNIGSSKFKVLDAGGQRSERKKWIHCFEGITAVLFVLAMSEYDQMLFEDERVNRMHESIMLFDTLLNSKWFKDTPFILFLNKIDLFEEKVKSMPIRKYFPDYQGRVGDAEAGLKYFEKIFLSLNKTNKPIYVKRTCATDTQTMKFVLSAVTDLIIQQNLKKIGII

Variants of: B1
Conditions: with gpa1_yeast GPA1, P08539

effect of a mutation on the interaction | Variant
decreasing interaction | L132F
